{"source": "patent US20200332006A1", "about": "(ULTRAHUMAN NINE, published 2020)", "key": {"[1]": {"biological_target": "T1, human BTN2A1, expressed on HEK293 cells (human, UniProt Q7KYR7 29-527)", "T1 construct": "also called NM_007049", "T1 sequence": "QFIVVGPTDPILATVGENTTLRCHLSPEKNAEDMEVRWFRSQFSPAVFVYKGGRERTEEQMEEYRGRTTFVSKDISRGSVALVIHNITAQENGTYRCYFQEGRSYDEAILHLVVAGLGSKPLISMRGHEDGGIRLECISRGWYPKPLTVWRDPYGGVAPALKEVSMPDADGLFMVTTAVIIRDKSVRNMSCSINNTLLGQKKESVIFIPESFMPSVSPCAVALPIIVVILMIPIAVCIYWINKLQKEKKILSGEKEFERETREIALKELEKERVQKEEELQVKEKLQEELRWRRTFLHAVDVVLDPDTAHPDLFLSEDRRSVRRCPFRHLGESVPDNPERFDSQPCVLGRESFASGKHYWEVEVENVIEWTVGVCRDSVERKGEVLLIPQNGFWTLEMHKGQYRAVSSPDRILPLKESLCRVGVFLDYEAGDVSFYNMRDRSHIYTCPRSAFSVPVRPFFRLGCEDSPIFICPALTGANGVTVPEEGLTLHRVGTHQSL", "assay": "Retrogenix cell microarray, fixed HEK293 cells", "method": "(§1) Human cell membrane receptor proteome arrays were performed at Retrogenix Ltd. Primary screens: 2 μg/ml of each antibody was screened for binding against fixed HEK293 cells/slides expressing 5528 human plasma membrane and tethered secreted proteins individually. […] Antibody binding was detected using AF647 fluorescent secondary anti-human IgG1 antibody. Primary hits (duplicate spots) were identified by analysing fluorescence (AF647 and ZsGreen1) on ImageQuant. Confirmation/specificity screens: Expression vectors encoding ZsGreen1 only, or ZsGreen1 and CD20, PD1, BTN2A1, or LSAMP were transfected into human HEK293 cells. […] Cells were washed, and incubated with the same AF647 anti-human IgG Fc detection antibody as used in the cell microarray screens. Cells were again washed, and analysed by flow cytometry using an Accuri flow cytometer (BD). A 7AAD live/dead dye was used to exclude dead cells, and ZsGreen1-positive cells (i.e. transfected cells) were selected for analyses."}, "[2]": {"biological_target": "T2, human LSAMP, expressed on HEK293 cells (human, UniProt Q13449 29-315)", "T2 construct": "also called BC033803", "T2 sequence": "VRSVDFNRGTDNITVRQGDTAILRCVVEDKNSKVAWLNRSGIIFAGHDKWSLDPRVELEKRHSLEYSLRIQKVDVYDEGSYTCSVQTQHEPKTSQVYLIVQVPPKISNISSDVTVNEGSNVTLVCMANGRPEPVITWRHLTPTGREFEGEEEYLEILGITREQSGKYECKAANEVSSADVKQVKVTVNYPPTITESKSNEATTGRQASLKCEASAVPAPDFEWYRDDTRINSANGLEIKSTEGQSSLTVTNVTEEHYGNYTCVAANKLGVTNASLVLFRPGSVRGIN", "assay": "flow cytometry on live transfected HEK293 cells", "method": "(§2) FIG. 11. […] Analyses of binding specificity were performed on HEK293 cells transiently transfected with plasmids encoding either human PD1, human BTN2A1, human LSAMP, human CD20 or ZS green marker only. Each antibody was used in staining at […] concentration and histograms are indicated per antibody in this figure.\nas §1"}, "[3]": {"biological_target": "T3, human CD20, expressed on HEK293 cells (human, UniProt P11836 1-297)", "T3 construct": "whole, on cells", "T3 sequence (looked up)": "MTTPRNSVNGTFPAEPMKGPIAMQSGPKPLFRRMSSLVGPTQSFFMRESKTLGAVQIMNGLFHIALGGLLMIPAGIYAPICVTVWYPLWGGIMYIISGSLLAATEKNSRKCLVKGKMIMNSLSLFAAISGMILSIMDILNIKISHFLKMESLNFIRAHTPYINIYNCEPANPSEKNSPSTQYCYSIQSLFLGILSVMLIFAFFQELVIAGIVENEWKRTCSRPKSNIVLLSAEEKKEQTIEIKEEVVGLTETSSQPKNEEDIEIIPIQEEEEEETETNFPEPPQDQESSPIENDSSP", "assay": "flow cytometry on live transfected HEK293 cells", "method": "as §2, §1"}, "[4]": {"biological_target": "T1, human BTN2A1, expressed on HEK293 cells", "assay": "flow cytometry on transfected HEK293 cells, 2 ug/ml IgG", "method": "as §2, §1"}, "[5]": {"biological_target": "T2, human LSAMP, expressed on HEK293 cells", "assay": "flow cytometry on transfected HEK293 cells, 2 ug/ml IgG", "method": "as §2, §1"}, "[6]": {"biological_target": "T3, human CD20, expressed on HEK293 cells", "assay": "flow cytometry on transfected HEK293 cells, 2 ug/ml IgG", "method": "as §2, §1"}, "[7]": {"biological_target": "T4, human PD1, membrane-expressed on transfected cells (CHO-K1 stable line, HEK293 transfectants, PD1 effector … (human, UniProt Q15116 25-288))", "T4 construct": "also called PD1 (PDCD1) NM_005018; membrane-presented human PD1", "T4 sequence (Q15116 25-288 limits assumed)": "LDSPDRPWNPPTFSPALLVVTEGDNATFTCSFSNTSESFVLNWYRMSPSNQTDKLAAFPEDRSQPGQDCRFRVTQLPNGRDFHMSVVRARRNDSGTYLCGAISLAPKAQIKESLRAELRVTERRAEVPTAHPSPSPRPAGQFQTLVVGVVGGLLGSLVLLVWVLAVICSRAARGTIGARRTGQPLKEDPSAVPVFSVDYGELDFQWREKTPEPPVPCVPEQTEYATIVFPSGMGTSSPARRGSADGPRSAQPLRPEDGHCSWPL", "assay": "Retrogenix cell microarray, fixed HEK293 cells, 2 ug/ml IgG"}, "[8]": {"biological_target": "T5, cynomolgus monkey PD1, membrane-expressed on CHO-K1 stable cell line (cynomolgus monkey, UniProt Q15116 25-288 (human entry))", "T5 construct": "Genscript cell line M00572; also called membrane-presented cyno PD1", "T5 chain": "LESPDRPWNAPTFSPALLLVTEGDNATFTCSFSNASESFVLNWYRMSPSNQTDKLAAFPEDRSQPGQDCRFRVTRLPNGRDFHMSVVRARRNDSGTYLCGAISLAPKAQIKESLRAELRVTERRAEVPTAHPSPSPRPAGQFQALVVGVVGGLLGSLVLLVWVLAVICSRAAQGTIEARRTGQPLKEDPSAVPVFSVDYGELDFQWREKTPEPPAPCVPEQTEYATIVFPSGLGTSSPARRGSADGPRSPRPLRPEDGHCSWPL", "assay": "flow cytometry on CHO cells stably transfected with cyno PD1 (reference antibody)", "method": "The IgG samples were titrated in three-fold serial dilutions starting at 500 nM to 0.98 nM. Binding of IgGs was detected with a mouse anti-human IgG conjugated to FITC. Results were analyzed by examining the Mean Fluorescence Intensity (MFI) of 10000 cells per sample in the BL-1 channel detector of a flow cytometer (Attune™ NxT Acoustic Focusing Cytometer, Invitrogen/ThermoFisher Scientific).\nAntibodies to PD1 were analysed for concentration-dependent binding at the cell surface via flow cytometry. Initial analyses were performed on CHO cells stably-transfected with human or cyno PD1."}}}
{"binder": "Hu317 humanized anti-PD1 antibody, IgG1null format (antibody, V domains shown, Tested as IgG1null (human IgG1 L234A, L235A, G237A) with human Ckappa; also called hu317 IgG1) VH: QVQLQESGPGLVKPSETLSLTCTVSGFSLTSYGVHWIRQPPGKGLEWIGVIYADGSTNYNPSLKSRVTISKDTSKNQVSLKLSSVTAADTAVYYCARAYGNYWYIDVWGQGTTVTVSS VL: DIVMTQSPDSLAVSLGERATINCKSSESVSNDVAWYQQKPGQPPKLLINYAFHRFTGVPDRFSGSGYGTDFTLTISSLQAEDVAVYYCHQAYSSPYTFGQGTKLEIK", "values": [{"measurement": "binding result", "setting": "[1]", "value": "no binding (tested: 2 ug/ml)"}, {"measurement": "binding result", "setting": "[2]", "value": "no binding (tested: 2 ug/ml)"}, {"measurement": "binding result", "setting": "[3]", "value": "no binding (tested: 2 ug/ml)"}, {"measurement": "fold fluorescence change versus mock (ZSgreen only) cells", "setting": "[4]", "value": 1.2, "unit": "fold"}, {"measurement": "fold fluorescence change versus mock (ZSgreen only) cells", "setting": "[5]", "value": 1.5, "unit": "fold"}, {"measurement": "fold fluorescence change versus mock (ZSgreen only) cells", "setting": "[6]", "value": 1.4, "unit": "fold"}, {"measurement": "binding result", "setting": "[7]", "value": "binds"}, {"measurement": "binding result", "setting": "[8]", "value": "binds"}]}
